# Measurements as given in IntAct's records for PubMed 16732284.
# B1: Carboxypeptidase Y-deficient protein 8 (Saccharomyces cerevisiae), P40335 (parent)
# chain: MSIFFKPPIDIEILFDNEESRKHVDIATRSSNSSYKSMKESLPVYEDGESLGGIVTLRVRDSKKVDHLGIKVSVIGSIDMLKSHGSGNSSSKKVTSSTSSSSSNGSVDVRKNSVDQFLCQSYDLCPAGELQHSQSFPFLFRDLSKRYESYKGKNVDVAYYVKVTVMRKSTDISKIKRFWVYLYNSVTTAPNTLSANETKATTNDIAGGNYAADNASDNTQTKSTQGEAADVNQVLPISHSNNEPKPVRLDIGIENCLHIEFEYAKSQYSLKEVIVGRIYFLLTRLRIKHMELSLITRESSGLQTSNVMTDSTAIRYEIMDGSSVKGETIPIRLFLSGYDLTPNMSCNYFNVKNYLSLVIIDEDGRRYFKQSEITLYRTR
# Variants of: B1
# Conditions: with vps35_human VPS35, Q96QK1
row,Variant,effect of a mutation on the interaction
1,I318D;M319D,disrupting interaction
